Assay results taken from the supplement of paper PMC9732359.
± gives the uncertainty stated by the source.

Experiment: protein stability index of a GFP-peptide fusion (yeast GPS) (PSI 1-4); higher = more stable; sorted into four equal gates, so the index is relative within each strain
In short: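 Plasmids isolated from each sorting gate were PCR-amplified and Illumina-sequenced, and barcodes assigned the reads to strains. The gates, four of equal size, were set by GFP/Cherry fluorescence ratio on mid-log cultures in leucine-free medium. These cultures were yeast carrying a pooled library of tiled 17-residue yeast protein peptides fused downstream of GFP on a plasmid that also expresses Cherry. The protein stability index is the sum of every gate's read frequency times its gate number.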

Row | Sequence | protein stability index (doa10∆) | protein stability index (pdr5∆) | protein stability index (san1∆) | protein stability index (ubr1∆)
1 | KNLSLQTGTKPVLKKKA [COR1] | 2.95 ± 0.07 | 3.05 ± 0.095 | 3.09 ± 0.06 | 2.79 ± 0.076
2 | KNMGLVPMKEENLEESF [SSN2] | 3.07 ± 0.2 | 3.38 ± 0.13 | 2.95 ± 0.17 | –
3 | KNPLFSYVEPVLVASAK [RPL31A] | 2.95 ± 0.075 | 2.57 ± 0.064 | 2.49 ± 0.066 | 2.76 ± 0.05
4 | KNQLRDWIRFVSTKTNE [RPL22A] | 2.3 ± 0.046 | 2.22 ± 0.047 | 2.17 ± 0.068 | 2.61 ± 0.04
5 | KNSDVWFLDHNYIENMN [RPN8] | 2.68 ± 0.1 | 2.44 ± 0.094 | 2.57 ± 0.11 | 2.41 ± 0.057
6 | KNSSTSNTEPIPRSNRH [MED1] | 3.1 ± 0.14 | 3.26 ± 0.12 | 2.91 ± 0.091 | 3.18 ± 0.063
7 | KNTIDFERFPSPSTSAN [RPN4] | 2.87 ± 0.09 | 2.95 ± 0.064 | 2.72 ± 0.082 | 3.03 ± 0.056
8 | KNTMFEKSDALVGVYRQ [SMC1] | 3.27 ± 0.18 | 2.88 ± 0.11 | 2.7 ± 0.081 | 2.94 ± 0.23
9 | KNVETLEEKILAKKTHK [SMC4] | 2.65 ± 0.075 | 2.94 ± 0.077 | 2.79 ± 0.053 | 2.92 ± 0.11
10 | KNVRFRVLQLLAVIMDN [YCG1] | 1.64 ± 0.057 | 1.54 ± 0.06 | 1.24 ± 0.099 | 1.51 ± 0.043
11 | KPDVTYADVGGLDMQKQ [RPT3] | – | 3.69 ± 0.14 | 3.47 ± 0.24 | 3.35 ± 0.21
12 | KPETPKGPIIISKNPSN [SIR2] | 2.92 ± 0.063 | 3 ± 0.052 | 2.67 ± 0.06 | 2.88 ± 0.046
13 | KPFLKGLVNHRVGVKLK [SMX3] | 2.76 ± 0.042 | 2.21 ± 0.041 | 2.07 ± 0.052 | 1.78 ± 0.031
14 | KPFRQTKFKVRGSSSLY [RPL38] | 2.83 ± 0.12 | 3.33 ± 0.071 | 3.17 ± 0.09 | 3 ± 0.085
15 | KPKMLPIPSKPTLFDLA [SRP68] | 2.48 ± 0.071 | 2.54 ± 0.072 | 2.31 ± 0.099 | 2.53 ± 0.06
16 | KPLGPCDVFWVQKDTAI [POP1] | 2.85 ± 0.07 | 3.03 ± 0.069 | 2.89 ± 0.06 | 2.96 ± 0.054
17 | KPPSSAFNFSFNTSRNV [YAR002W/NUP60] | 3.2 ± 0.042 | 3.18 ± 0.056 | 3.26 ± 0.045 | 3.05 ± 0.04
18 | KPTDATGNTTSKSAFSF [YOR098C/NUP1] | 2.04 ± 0.12 | 2.57 ± 0.088 | 2.1 ± 0.12 | 2.46 ± 0.11
19 | KPVYKGKKLTDEINTAQ [RET1] | 2.92 ± 0.12 | 2.99 ± 0.094 | 2.75 ± 0.084 | 3.2 ± 0.077
20 | KQANNFLWPFKLSNPSG [RPL7A] | 2.69 ± 0.13 | 3.02 ± 0.12 | 3.09 ± 0.1 | 2.74 ± 0.11
21 | KQEIREAVELPLVQADL [RPT3] | 3.2 ± 0.13 | 2.81 ± 0.22 | 3.43 ± 0.12 | 2.96 ± 0.17
22 | KQLIMESQEKYMEPFDL [NSL1] | 3.29 ± 0.072 | 3.31 ± 0.054 | 3.32 ± 0.047 | 3.28 ± 0.039
23 | KQNEQLHVEQLSGGQKT [SMC3] | 2.07 ± 0.095 | 2.71 ± 0.099 | 2.19 ± 0.1 | 2.19 ± 0.053
24 | KQQPTMQANKLDSQETP [SWI3] | 2.95 ± 0.12 | 2.98 ± 0.073 | 2.92 ± 0.081 | 2.95 ± 0.071
25 | KQTDTGITHFRAGMTHE [PRP8] | 2.36 ± 0.055 | 2.61 ± 0.047 | 3.08 ± 0.057 | 2.94 ± 0.037
26 | KQYLSASFSLKNGDKPH [RPL6A] | 2.34 ± 0.057 | 1.93 ± 0.045 | 2.43 ± 0.058 | 2.96 ± 0.029
